The target of experiment [1] is T1, Robo1 IG5-2ドメイン(B5209B抗体が認識するイムノグロブリン様ドメインの5番目) (Homo sapiens (Human), UniProt Q9Y6N7 455-543).
T1 construct: Antigen fragment of Robo1 used in ITC and in the co-crystal structure
T1 sequence: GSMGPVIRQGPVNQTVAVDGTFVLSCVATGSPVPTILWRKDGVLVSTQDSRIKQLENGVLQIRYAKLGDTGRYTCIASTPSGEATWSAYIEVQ
The experiment in a line: co-crystal structure of scFv and IG5-2.

For experiment [2], the target named is T1, Robo1 …. Nature of the experiment: ITC with molecular dynamics interpretation.
The target of experiment [3] is T1, Robo1 …. Nature of the experiment: ITC, thermodynamic parameters. (In general: ITC needs no label: the signal is the heat of the interaction.)

B1: B5209B 一本鎖抗体(scFv) 野生型 (scFv)
scFv: MAEVQLVESGGGVVQPGGSLKLSCAASGFTFSTYDMSWVRQTPDKRLELVATINSNGGSTYYPDSVKGRFTSSRDNAKNILYLQMSSLKSEDTAMYYCAREALLRPPYYALDYWGQGTSVTVSSAGGGGSGGGGSGGGGSGGGGSDILDIQMTQSPASLSASVGETVTITCGASENIYGALTWYQRKQGKSPQLLIYGAINLADDKSSRFSGSGSGRQYSLKISSLHPDDVATYYCQNVLSTPFTFGSGTKLEIKAAGHHHHHH
notes: Expressed in E. coli Origami2(DE3) from pRA2; also called B5209B scFv; WT
For the molecule B1, the binding result in experiment [1] is on record as “binds”.

B2: B5209B scFv HP103A変異体 (scFv)
scFv: QLVESGGGVVQPGGSLKLSCAASGFTFSTYDMSWVRQTPDKRLELVATINSNGGSTYYPDSVKGRFTSSRDNAKNILYLQMSSLKSEDTAMYYCAREALLRPAYYALDYWGQGTSVTVSSGGGGSGGGGSGGGGSGGGGSDIQMTQSPASLSASVGETVTITCGASENIYGALTWYQRKQGKSPQLLIYGAINLADDKSSRFSGSGSGRQYSLKISSLHPDDVATYYCQNVLSTPFTFGSGTKLEIKHHHHHH
Consider B2, for which the binding result in experiment [2] was “binds”.

B3: B5209B scFv LY30A変異体 (scFv)
scFv: QLVESGGGVVQPGGSLKLSCAASGFTFSTYDMSWVRQTPDKRLELVATINSNGGSTYYPDSVKGRFTSSRDNAKNILYLQMSSLKSEDTAMYYCAREALLRPPYYALDYWGQGTSVTVSSGGGGSGGGGSGGGGSGGGGSDIQMTQSPASLSASVGETVTITCGASENIAGALTWYQRKQGKSPQLLIYGAINLADDKSSRFSGSGSGRQYSLKISSLHPDDVATYYCQNVLSTPFTFGSGTKLEIKHHHHHH
B3: the binding result in experiment [3] is “binds”.
